Source: article PMC9352680, “A comprehensive thermodynamic model for RNA binding by the Saccharomyces cerevisiae Pumilio protein PUF4”

These binders were tested against T1, PUF4 RNA-binding domain (Saccharomyces cerevisiae, UniProt P25339 537-888) (assay: Mg; RNA-MaP; 20 mM Na-HEPES pH 7.4, 30 mM KOAc, 0.75 mM MgCl2, 0.1% Tween-20, 5% glycerol, 0.1 mg/mL BSA, 2 mM DTT; 25 C; 0.0125-409.6 nM protein). Conditions: tags: N-His6-TEV cleaved; C-SNAP kept, Cy3B-labelled; label: tethered on chip by stalled RNA polymerase.
T1 sequence: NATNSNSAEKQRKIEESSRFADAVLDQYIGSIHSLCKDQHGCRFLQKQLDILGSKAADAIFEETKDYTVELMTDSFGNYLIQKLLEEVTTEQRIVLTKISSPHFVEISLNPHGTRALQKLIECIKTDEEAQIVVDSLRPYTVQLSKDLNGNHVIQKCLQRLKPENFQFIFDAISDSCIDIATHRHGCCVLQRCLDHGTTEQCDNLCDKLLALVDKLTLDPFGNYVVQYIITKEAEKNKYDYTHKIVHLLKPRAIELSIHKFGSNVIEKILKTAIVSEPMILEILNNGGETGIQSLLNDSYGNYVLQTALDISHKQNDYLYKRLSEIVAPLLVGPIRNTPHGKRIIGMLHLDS

Binder | Kd [nM]
Ic_S2_P4E.1_K4.1_C4.1_H4.1_A4.1_[T5G]_[A6C]_[T7G]_F4.1_[T8G]_[A9T]_T4.1 (ssRNA) RNA: UUUGAUUAAUAUGAUAUCGUUCUUUCUUGUAGCGGUUUCUUUCUCGAUAUCAUAUUAAUCUUU | 808
Ic_S2_P4E.1_K4.1_C4.1_H4.1_A4.1_[T5G]_[A6C]_[T7A]_F4.1_[A9G]_T4.1 (ssRNA) RNA: UUUGAUUAAUAUGAUAUCGUUCUUUCUUGUAGCAUGUUCUUUCUCGAUAUCAUAUUAAUCUUU | 27.6
Ic_S2_P4E.1_K4.1_C4.1_H4.1_A4.1_[T5G]_[A6C]_[T7G]_F4.1_[T8C]_[A9C]_T4.1 (ssRNA) RNA: UUUGAUUAAUAUGAUAUCGUUCUUUCUUGUAGCGCCUUCUUUCUCGAUAUCAUAUUAAUCUUU | 750
Ic_S2_P4E.1_K4.1_C4.1_H4.1_A4.1_[T5G]_[A6C]_F4.1_[T8G]_[A9G]_T4.1 (ssRNA) RNA: UUUGAUUAAUAUGAUAUCGUUCUUUCUUGUAGCUGGUUCUUUCUCGAUAUCAUAUUAAUCUUU | 709
Ic_S2_P4E.1_K4.1_C4.1_H4.1_A4.1_[T5G]_[A6C]_F4.1_[T8C]_T4.1 (ssRNA) RNA: UUUGAUUAAUAUGAUAUCGUUCUUUCUUGUAGCUCAUUCUUUCUCGAUAUCAUAUUAAUCUUU | 266
Ic_S2_P4E.1_K4.1_C4.1_H4.1_A4.1_[T5G]_[A6C]_[T7C]_F4.1_[T8A]_[A9T]_T4.1 (ssRNA) RNA: UUUGAUUAAUAUGAUAUCGUUCUUUCUUGUAGCCAUUUCUUUCUCGAUAUCAUAUUAAUCUUU | 402
Ic_S2_P4E.1_K4.1_C4.1_H4.1_A4.1_[T5G]_[A6C]_[T7C]_F4.1_[T8C]_[A9G]_T4.1 (ssRNA) RNA: UUUGAUUAAUAUGAUAUCGUUCUUUCUUGUAGCCCGUUCUUUCUCGAUAUCAUAUUAAUCUUU | 1680
Ic_S2_P4E.1_K4.1_C4.1_H4.1_A4.1_[T5G]_[A6C]_[T7A]_F4.1_[A9T]_T4.1 (ssRNA) RNA: UUUGAUUAAUAUGAUAUCGUUCUUUCUUGUAGCAUUUUCUUUCUCGAUAUCAUAUUAAUCUUU | 9.32
Ic_S2_P4E.1_K4.1_C4.1_H4.1_A4.1_[T5G]_[A6C]_F4.1_[T8A]_T4.1 (ssRNA) RNA: UUUGAUUAAUAUGAUAUCGUUCUUUCUUGUAGCUAAUUCUUUCUCGAUAUCAUAUUAAUCUUU | 111
Ic_S2_P4E.1_K4.1_C4.1_H4.1_A4.1_[T5G]_[A6C]_[T7C]_F4.1_[A9T]_T4.1 (ssRNA) RNA: UUUGAUUAAUAUGAUAUCGUUCUUUCUUGUAGCCUUUUCUUUCUCGAUAUCAUAUUAAUCUUU | 48
Ic_S2_P4E.1_K4.1_C4.1_H4.1_A4.1_[T5G]_[A6C]_F4.1_[T8C]_[A9G]_T4.1 (ssRNA) RNA: UUUGAUUAAUAUGAUAUCGUUCUUUCUUGUAGCUCGUUCUUUCUCGAUAUCAUAUUAAUCUUU | 988
Ic_S2_P4E.1_K4.1_C4.1_H4.1_A4.1_[T5G]_[A6C]_[T7A]_F4.1_T4.1 (ssRNA) RNA: UUUGAUUAAUAUGAUAUCGUUCUUUCUUGUAGCAUAUUCUUUCUCGAUAUCAUAUUAAUCUUU | 1.41
Ic_S2_P4E.1_K4.1_C4.1_H4.1_A4.1_[T5G]_[A6C]_[T7G]_F4.1_T4.1 (ssRNA) RNA: UUUGAUUAAUAUGAUAUCGUUCUUUCUUGUAGCGUAUUCUUUCUCGAUAUCAUAUUAAUCUUU | 9.8
Ic_S2_P4E.1_K4.1_C4.1_H4.1_A4.1_[T5G]_[A6C]_F4.1_[T8A]_[A9G]_T4.1 (ssRNA) RNA: UUUGAUUAAUAUGAUAUCGUUCUUUCUUGUAGCUAGUUCUUUCUCGAUAUCAUAUUAAUCUUU | 846
Ic_S2_P4E.1_K4.1_C4.1_H4.1_A4.1_[T5G]_[A6C]_[T7A]_F4.1_[T8A]_T4.1 (ssRNA) RNA: UUUGAUUAAUAUGAUAUCGUUCUUUCUUGUAGCAAAUUCUUUCUCGAUAUCAUAUUAAUCUUU | 360
Ic_S2_P4E.1_K4.1_C4.1_H4.1_A4.1_[T5G]_[A6C]_[T7A]_F4.1_[T8C]_T4.1 (ssRNA) RNA: UUUGAUUAAUAUGAUAUCGUUCUUUCUUGUAGCACAUUCUUUCUCGAUAUCAUAUUAAUCUUU | 828
Ic_S2_P4E.1_K4.1_C4.1_H4.1_A4.1_[T5G]_[A6C]_[T7G]_F4.1_[A9C]_T4.1 (ssRNA) RNA: UUUGAUUAAUAUGAUAUCGUUCUUUCUUGUAGCGUCUUCUUUCUCGAUAUCAUAUUAAUCUUU | 782
Ic_S2_P4E.1_K4.1_C4.1_H4.1_A4.1_[T5G]_[A6C]_[T7C]_F4.1_T4.1 (ssRNA) RNA: UUUGAUUAAUAUGAUAUCGUUCUUUCUUGUAGCCUAUUCUUUCUCGAUAUCAUAUUAAUCUUU | 5.95
Ic_S2_P4E.1_K4.1_C4.1_H4.1_A4.1_[T5G]_[A6C]_[T7G]_F4.1_[T8C]_[A9G]_T4.1 (ssRNA) RNA: UUUGAUUAAUAUGAUAUCGUUCUUUCUUGUAGCGCGUUCUUUCUCGAUAUCAUAUUAAUCUUU | > 2300
Ic_S2_P4E.1_K4.1_C4.1_H4.1_A4.1_[T5G]_[A6C]_[T7C]_F4.1_[T8C]_T4.1 (ssRNA) RNA: UUUGAUUAAUAUGAUAUCGUUCUUUCUUGUAGCCCAUUCUUUCUCGAUAUCAUAUUAAUCUUU | 1090
Ic_S2_P4E.1_K4.1_C4.1_H4.1_A4.1_[T5G]_[A6C]_[T7C]_F4.1_[T8G]_[A9C]_T4.1 (ssRNA) RNA: UUUGAUUAAUAUGAUAUCGUUCUUUCUUGUAGCCGCUUCUUUCUCGAUAUCAUAUUAAUCUUU | > 2300
Ic_S2_P4E.1_K4.1_C4.1_H4.1_A4.1_[T5G]_[A6C]_[T7C]_F4.1_[T8A]_[A9C]_T4.1 (ssRNA) RNA: UUUGAUUAAUAUGAUAUCGUUCUUUCUUGUAGCCACUUCUUUCUCGAUAUCAUAUUAAUCUUU | 1280

Binder | Kd [nM]
Ic_S2_P4E.1_K4.1_C4.1_H4.1_A4.1_[T5G]_[A6C]_[T7C]_F4.1_[A9G]_T4.1 (ssRNA) RNA: UUUGAUUAAUAUGAUAUCGUUCUUUCUUGUAGCCUGUUCUUUCUCGAUAUCAUAUUAAUCUUU | 300
Ic_S2_P4E.1_K4.1_C4.1_H4.1_A4.1_[T5G]_[A6C]_[T7C]_F4.1_[T8C]_[A9T]_T4.1 (ssRNA) RNA: UUUGAUUAAUAUGAUAUCGUUCUUUCUUGUAGCCCUUUCUUUCUCGAUAUCAUAUUAAUCUUU | 614
Ic_S2_P4E.1_K4.1_C4.1_H4.1_A4.1_[T5G]_[A6C]_[T7C]_F4.1_[T8C]_[A9C]_T4.1 (ssRNA) RNA: UUUGAUUAAUAUGAUAUCGUUCUUUCUUGUAGCCCCUUCUUUCUCGAUAUCAUAUUAAUCUUU | 685
Ic_S2_P4E.1_K4.1_C4.1_H4.1_A4.1_[T5G]_[A6C]_[T7C]_F4.1_[T8A]_[A9G]_T4.1 (ssRNA) RNA: UUUGAUUAAUAUGAUAUCGUUCUUUCUUGUAGCCAGUUCUUUCUCGAUAUCAUAUUAAUCUUU | > 2300
UCUCUUUAUAUGUAUCUCUU (ssRNA) [Ib_S1_P3E.1_K3.1_C3.1_H3.1_[G2A]_A3.1_[A6G]_F3.1_T3.1] | 384
UCUCUUUAUAUUUAUCUCUU (ssRNA) [Ib_S1_P3E.1_K3.1_C3.1_H3.1_[G2A]_A3.1_[A6T]_F3.1_T3.1] | > 2300
UCUCUUUGCAUGUAUCUCUU (ssRNA) [Ib_S1_P3E.1_K3.1_C3.1_H3.1_[T3C]_A3.1_[A6G]_F3.1_T3.1] | 535
UCUCUUUGCAAAUAUCUCUU (ssRNA) [Ib_S1_P3E.1_K3.1_C3.1_H3.1_[T3C]_A3.1_[T5A]_F3.1_T3.1] | > 2300
Ic_S2_P3E.1_K3.1_C3.1_H3.1_A3.1_[T5A]_F3.1_[T7C]_[A8T]_T3.1 (ssRNA) RNA: UUUGAUUAAUAUGAUAUCGUUCUUUCUUGUAAACUUUCUUUCUCGAUAUCAUAUUAAUCUUU | 19.9
Ic_S2_P3E.1_K3.1_C3.1_H3.1_A3.1_[A6C]_F3.1_[T7C]_[A8T]_T3.1 (ssRNA) RNA: UUUGAUUAAUAUGAUAUCGUUCUUUCUUGUAUCCUUUCUUUCUCGAUAUCAUAUUAAUCUUU | 13.7
Ic_S2_P3E.1_K3.1_C3.1_H3.1_A3.1_[A6C]_F3.1_[T7A]_[A8T]_T3.1 (ssRNA) RNA: UUUGAUUAAUAUGAUAUCGUUCUUUCUUGUAUCAUUUCUUUCUCGAUAUCAUAUUAAUCUUU | 4.83
Ic_S2_P3E.1_K3.1_C3.1_H3.1_A3.1_[A6G]_F3.1_[T7C]_[A8C]_T3.1 (ssRNA) RNA: UUUGAUUAAUAUGAUAUCGUUCUUUCUUGUAUGCCUUCUUUCUCGAUAUCAUAUUAAUCUUU | 585
Ic_S2_P3E.1_K3.1_C3.1_H3.1_A3.1_[A6C]_F3.1_[T7A]_[A8G]_T3.1 (ssRNA) RNA: UUUGAUUAAUAUGAUAUCGUUCUUUCUUGUAUCAGUUCUUUCUCGAUAUCAUAUUAAUCUUU | 208
Ic_S2_P3E.1_K3.1_C3.1_H3.1_A3.1_[A6T]_F3.1_[T7C]_[A8T]_T3.1 (ssRNA) RNA: UUUGAUUAAUAUGAUAUCGUUCUUUCUUGUAUUCUUUCUUUCUCGAUAUCAUAUUAAUCUUU | 11.9
Ic_S2_P3E.1_K3.1_C3.1_H3.1_A3.1_[A6T]_F3.1_[T7C]_[A8G]_T3.1 (ssRNA) RNA: UUUGAUUAAUAUGAUAUCGUUCUUUCUUGUAUUCGUUCUUUCUCGAUAUCAUAUUAAUCUUU | 234
Ic_S2_P3E.1_K3.1_C3.1_H3.1_A3.1_[A6C]_F3.1_[T7G]_[A8T]_T3.1 (ssRNA) RNA: UUUGAUUAAUAUGAUAUCGUUCUUUCUUGUAUCGUUUCUUUCUCGAUAUCAUAUUAAUCUUU | 114
Ic_S2_P3E.1_K3.1_C3.1_H3.1_A3.1_[A6C]_F3.1_[T7C]_[A8C]_T3.1 (ssRNA) RNA: UUUGAUUAAUAUGAUAUCGUUCUUUCUUGUAUCCCUUCUUUCUCGAUAUCAUAUUAAUCUUU | 132
Ic_S2_P3E.1_K3.1_C3.1_H3.1_A3.1_[T5A]_F3.1_[T7A]_[A8C]_T3.1 (ssRNA) RNA: UUUGAUUAAUAUGAUAUCGUUCUUUCUUGUAAAACUUCUUUCUCGAUAUCAUAUUAAUCUUU | 621
Ic_S2_P3E.1_K3.1_C3.1_H3.1_A3.1_F3.1_T3.1 (ssRNA) RNA: UUUGAUUAAUAUGAUAUCGUUCUUUCUUGUAUAUAUUCUUUCUCGAUAUCAUAUUAAUCUUU | 1.38
Ic_S2_P3E.1_K3.1_C3.1_H3.1_A3.1_[A6T]_F3.1_[T7G]_[A8C]_T3.1 (ssRNA) RNA: UUUGAUUAAUAUGAUAUCGUUCUUUCUUGUAUUGCUUCUUUCUCGAUAUCAUAUUAAUCUUU | 442
Ic_S2_P3E.1_K3.1_C3.1_H3.1_A3.1_[A6T]_F3.1_[T7C]_[A8C]_T3.1 (ssRNA) RNA: UUUGAUUAAUAUGAUAUCGUUCUUUCUUGUAUUCCUUCUUUCUCGAUAUCAUAUUAAUCUUU | 76
Ic_S2_P3E.1_K3.1_C3.1_H3.1_A3.1_[A6G]_F3.1_[T7G]_[A8C]_T3.1 (ssRNA) RNA: UUUGAUUAAUAUGAUAUCGUUCUUUCUUGUAUGGCUUCUUUCUCGAUAUCAUAUUAAUCUUU | 950
